The text below walks through data of patent publication US20250361295A1.

The target in experiment [1] is human LILRB4 (human) (UniProt Q8NHJ6). Description: competitive FACS; competition with IO-202.
Experiment [2] shares this target. The experiment in a line: FACS. A general note: In flow cytometry, cells or beads pass a laser one at a time.
For experiment [3], the target named is hLILRB3 (human) (UniProt O75022). Description: FACS; isotype control.
The target in experiment [4] is human LILRB4 (human) (UniProt Q8NHJ6). The experiment in a line: cell-based or functional assay.
In experiment [5] the target is human LILRA6 protein (human) (UniProt Q6PI73). The experiment in a line: ELISA, LILRA6 protein. A general note: An ELISA detects its analyte on a solid surface through an enzyme-linked reagent.

One may read the IC50 as the concentration that inhibits the measured activity by half. Lower therefore signals greater potency. One may read the EC50 as the concentration that produces a half-maximal response. Lower therefore signals greater potency. For the substance IO-202, the concentration for half-maximal inhibition (IC50) in experiment [1] amounted to 3.74 nM. This substance displayed a half-maximal effective concentration (EC50) in experiment [2] of 1.31 nM.
Regarding Isotype, the EC50 in experiment [3] turned out to be 42 nM.
On to Isotype (hIgG1) (antibody), for which, in experiment [4], the ADCP (%) at 133.3 nM, macrophages and MV-4-11 cells stood at 2.92%; the FcγR stimulation (TNF-α, pg/mL) is 31.6 pg/mL; the Fold change (Compared to isotype) amounted to 1 fold; the Max cell cytotoxicity (%), ADCC on THP-1 cells stood at 2.75%. Moreover, the ELISA(OD450) in experiment [5] came to 0.152 OD450.
